Substrate: Oc1cc(O)c2c(c1)O[C@H](c1ccc(O)c(O)c1)[C@@H](O)C2
Assay: purified protein
Details: 100 mM acetate buffer pH 5.0, 28 °C, 5-300 μM substrate

B1: SmLAC1 (recombinant MBP-SmLAC1) (Salvia miltiorrhiza) (protein)
chain: MERSLMFSAWVLALLVCLSSFASAAIVEHTFHVKNLTVNKLCRNQVITAVNGSLPGPTLRVHEGDTLVVHVFNKSPYNLTIHWHGIFQILSGWADGPEFATQCPIRPGQSYTYRFNITGQEGTLWWHAHVGWLRATVYGALVIRPRSGHSFPFPKPHREIPIVLGEWWNANVIDVENQALATGAAPNLSDAYTINGHPGNLYPCSSNDTFRLTVVHGKTYLLRIINAALNNQLFFKIANHNLTVVAVDASYTNPYTTDVVLVAPGQTTDVLLTADQTPARYYMAASAYQSAAGVPFDNTTTTGIVAYSGTTPSAPIMPLLPAFNDTPTAHRFFSNLTALVSSRFWAPVPRHVDERMFVTIGLGLSACDLPQCQGPFGLKLAASMNNASFQFPTRLSMLEAFFRGVGGIYTADFPDNPPVRFDYTNSSNSLNQALLNTTKSTKVKKVRFNSTVEVVLQNTAFLGVENHPIHLHGFNFYVLAQGFGNYNPALDTRKFNFVNPQERNTIGVPVGGWAVIRFRANNPGVWLIHCHLDVHLPWGLATAFVVENGPTPATTLPPPPADFPKC
How did the Km turn out when B1 was run?
The Km was 21.2 µM.

— article PMC11811200
